Measured values as given in paper PMC1904298.

The substances below were run on ϕC31 integrase (Streptomyces phage ϕC31?) (assay: EMSA).
In the case of attB C+15G, 72 bp fragment, the K half was 72.7 nM.
Substance attB C-2A:G+2T, 72 bp fragment has a K half of 56.7 nM.
Work on attB C-2G, 72 bp fragment yielded a K half of 55.7 nM.
In the case of attB G+2C, 72 bp fragment, the K half was 58.3 nM.
For attB G+16A, 72 bp fragment, the K half was 53.3 nM.
attB G-16T, 72 bp fragment was tested, and the K half was 66 nM.
In the case of attB G-16T:G+16A, 72 bp fragment, the K half was 61.3 nM.
For attB T-15C, 72 bp fragment, the K half was 68.3 nM.
Work on attB wt, 72 bp fragment yielded a K half of 61.3 nM.
